What was measured:
[1] = Chemical denaturation: unfolding in urea by intrinsic tryptophan fluorescence; type: physicochemical; settings: for m1/2 value of unfolding: 20 μM protein; for m1/2 value of unfolding / Native free energy (ΔG in absence of denaturant): room temperature; for Native free energy (ΔG in absence of denaturant): extrapolated to zero urea
Description: Stability measurements of the protein were performed by measuring protein unfolding in the presence of urea via intrinsic tryptophan fluorescence (Lakowicz, 1983) in a Shimadzu RF5301 fluorometer. The excitation and emission wavelengths were 295 nm and 340 nm respectively. Both excitation and emission monochrometer slits were set at 1.5 nm. Protein (20 μM) was mixed with increasing amounts of urea (in the concentration range of zero to 6.8 M), and the samples were incubated at room temperature for ten hours to ensure that unfolding equilibrium had been achieved. Relative fluorescence was converted into free energy values according to the relation (Pace et al., 1989): [formula]
where yf and yu are the relative fluorescence values for fully folded and fully unfolded DST respectively, yi is the relative fluorescence of the unfolding intermediates, T is the absolute temperature, and R is the gas constant. Linear regression and extrapolation of the relationship ΔG versus [urea] was employed to determine the free energy value in the absence of denaturant (ΔGH2O). Similarly, the fraction unfolded protein (Fu) was calculated from the fluorescence data according to the relation (Pace et al., 1989): [formula]

[2] = biological target: T1, bovine pancreatic trypsin (Bos taurus, UniProt P00760); assay: Isothermal titration calorimetry (ITC) of binding to bovine pancreatic trypsin; settings: for Binding to trypsin by ITC (in words): all experimental conditions, FIGS. 6 and 7; for Stoichiometry / Ka (association constant) / ΔH / ΔS: ITC
T1 sequence (P00760 24-246): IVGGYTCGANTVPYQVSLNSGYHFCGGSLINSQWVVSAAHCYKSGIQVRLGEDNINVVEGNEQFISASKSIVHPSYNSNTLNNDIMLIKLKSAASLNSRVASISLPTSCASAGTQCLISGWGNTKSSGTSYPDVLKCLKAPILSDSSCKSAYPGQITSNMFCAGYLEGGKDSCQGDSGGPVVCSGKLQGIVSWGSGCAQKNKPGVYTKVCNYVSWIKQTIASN
Description: Isothermal titration calorimetry (ITC) was performed with a VP-ITC instrument from MicroCal, inc. Titrations were carried out by injecting 5 μL of an inhibitor solution (at concentration ranges from 0.5 mM to 2.0 mM) into the 1.4 mL stirred reaction cell. APP and APP derivatives ranged in concentration from 50 to 80 μM in the cell. […] Titrations were conducted between 20° C. and 40° C. Typical experimental conditions for the titrations were a 10 second injection period followed by a 240 second delay between injections for a total of 40 injections. Blank titrations of inhibitor into buffer were performed in order to correct for heats of dilution and mixing.
The independent set of multiple binding sites is the most common model for binding experiment evaluations. The analytical solution for the total heat is determined by (Freire et al., 1990): [formula]
where Q is the total heat, V is the cell volume, ΔH is the enthalpy, M is the macromolecule concentration (the binding partner in the cell), n is the binding stoichiometry, L is the ligand concentration (the binding partner in the syringe), and K is the association constant. Data were fit to this model using Origin version 5 (MicroCal, Inc.).
The association constant is related to the van't Hoff enthalpy according to the following relationship: [formula]
The free energy of binding is related to the binding enthalpy by:
or with the incorporation of heat capacity data according to the Gibbs-Helmholtz equation: [formula]
where ΔG is the Gibbs free energy of binding, T0 is the reference temperature, and ΔCp is the heat capacity. The value of ΔCp is calculated from determining the calorimetric enthalpy at two different temperatures: [formula]
By measuring the apparent enthalpy of binding in two different buffers of known enthalpy of ionization, it is possible to measure the net number of protons transferred during the binding events:
where ΔHcor is the actual heat of binding at the pH measured. The sign indicates the direction of proton transfer.

[3] = biological target: T1, bovine pancreatic trypsin; assay: Surface plasmon resonance (BiaCore-X), trypsin flowed over immobilized peptide; type: binding; settings: peptide coupled to CM-5 chip by thiol, trypsin 1 to 100 nM in PBS, FIG. 12
Description: The BiaCore, Inc. BiaCore-X surface plasmon resonance (SPR) device was utilized to measure the interaction between bovine pancreatic trypsin and SAP-1 or SAP-2. For these experiments a carboxymethyl dextran sensor chip (CM-5) was activated with 50 mM N-hydroxysuccinimide, 0.2 M N-ethyl-N′-(dimethylaminopropyl)-carbodiimide at a flow rate of 10 μL per minute for ten minutes. The thiol coupling agent PDEA (2-(2-pyridinyldithio)ethaneamine hydrochloride) at a concentration of 80 mM was passed over the activated surface at a flow rate of 10 μL per minute for five minutes. SAP-1 or SAP-2 at a concentration of 50 ng/μL was coupled to the activated surface at a flow rate of 10 μL per minute for ten minutes. The final surface was inactivated by flowing 50 mM 1-cysteine, 1 M NaCl at a rate of 10 μL per minute for five minutes over the sensor surface. Buffer was switched to phosphate buffered saline (PBS) and bovine pancreatic trypsin was flowed over the sensor surface at a rate of 20 μL per minute, and at concentrations that ranged from 1 to 100 nM.
For this reaction of the type, A+B⇄AB, where A is the free flowing ligand and B is the immobilized ligand, the change in the SPR signal (R) is proportional to formation (for the association phase) or to the dissociation (for the dissociation phase) of the complex AB.
for the association phase. Rmax is the measured response if all of the binding sites in the bound species were occupied, c is the ligand concentration, and Rb is the shift in the baseline signal upon ligand injection. The dissociation phase is evaluated by:
where R0 is the SPR signal at the start of dissociation. A FFT routine separately smoothed the association and dissociation portions of the binding isotherm. Final kinetic analysis (O'Shannessy et al., 1993) was performed using Origin from Microcal, Inc.

CPSQPTYPGDPGPVEDLIRFYDNLQQWLNCVTAAC [SAP]
m1/2 value of unfolding [1]: 2.5 M urea | Dimerization seen in the unfolding curve (in words) ([1]; FIG. 9): no dimerization phenomenon | Native free energy (ΔG in absence of denaturant) [1]: -13 kJ/mol | Binding to trypsin by ITC (in words) [2]: no detectable binding | Binding to trypsin by ITC (in words), FIG. 6 titration ([2]; peptide 2 mM, trypsin 20 μM, 20 mM cacodylate pH 7.0, 20 mM NaCl, 30° C.): No binding is evident

CPSQPTYPGDPPYRIRFGPVEDLIRFYDNLQQWLN CVTAAC (CPSQPTYPGDPPYRIRFGPVEDLIRFYDNLQQWLNCVTAAC; A peptide-based reagent that combines the SEQ ID NO15 interactive domain with the SEQ ID NO11 peptide backbone.) [SAP-1]
Kinetic rate constant ka (association) [3]: 1.3×10^5 | Kinetic rate constant kd (dissociation) [3]: 1.7×10^−2 | Stabilization of the native state relative to SAP [1]: 8.37 kJ/mol | m1/2 value of unfolding [1]: 4.0 M urea | Native free energy (ΔG in absence of denaturant) [1]: -21.3 kJ/mol | Stoichiometry ([2]; 293 K (20° C.), 20 mM cacodylate pH 7.0, 20 mM NaCl, FIG. 7): 0.975 +/− 0.02 | Ka (association constant) ([2]; 293 K, FIG. 7): 1.65e+06 ± 45000 M⁻¹ | ΔH ([2]; 293 K, FIG. 7): -109 ± 6.07 kJ/mol | ΔS ([2]; 293 K, FIG. 7): −11.6 +/− 2.2 cal mol^−1 K^−1 | Ka (association constant) ([2]; 303 K): 2.4e+06 ± 37000 M⁻¹ | ΔH ([2]; 303 K): -64.4 ± 8.58 kJ/mol | ΔS ([2]; 303 K): −21.1 +/− 1.8 cal mol^−1 K^−1 | Stoichiometry ([2]; higher temperature, 303 K): 0.99 +/− 0.03 | Binding to trypsin by ITC (in words) [2]: remarkable binding specificity for trypsin | ΔCp (heat capacity of binding) ([2]; from calorimetric enthalpy at 293 K and 303 K): −0.51 kcal/mol K

CPSQPTYPGDPYKLKY GPVEDLIRFYDNLQQWLNCVTAAC (CPSQPTYPGDPYKLKYGPVEDLIRFYDNLQQWLNCVTAAC; A peptide-based reagent that combines the SEQ ID NO18 interactive domain with the SEQ ID NO11 peptide backbone.) [SAP-2, SAP backbone with library program-selected YKLKY insert]
Kinetic rate constant ka (association) [3]: 8.2×10^4 | Kinetic rate constant kd (dissociation) [3]: 6.9×10^−2 | Stabilization of the native state relative to SAP [1]: 8.79 kJ/mol | Stabilization of the native state relative to SAP-1 [1]: 0.42 kJ/mol | m1/2 value of unfolding [1]: 4.05 M urea | Stoichiometry ([2]; 25° C., 20 mM cacodylate pH 7.0, FIG. 8): 0.995 +/− 0.06 | Ka (association constant) ([2]; 25° C., FIG. 8): 640000 ± 5300 M⁻¹ | ΔH ([2]; 25° C., FIG. 8): -131 ± 9.62 kJ/mol | ΔS ([2]; 25° C., FIG. 8): −16.2 +/− 1.22 cal mol^−1 K^−1 | Binding affinity compared with the peptide having SEQ ID NO:21 (in words) ([2]; bovine pancreatic trypsin): slightly lower binding affinity
